Test results as given in patent US7585638B2, “Test system for measuring the interaction of STAT 6 with NCoA-1” (Boehringer Ingelheim International GmbH, priority 2001, dated 2009).

Assays:
[1] = target: T1, interaction of STAT6 and NCoA-1 (Mus musculus, UniProt P70365); experiment: GST pull-down assay of [35S]-labeled NCoA-1 with GST-STAT6-TAD in presence of peptides; format: binding, human; settings: 100 μg peptide; 4 μg GST-STAT6-TAD; SDS-PAGE and fluorography
T1 construct: made in house; host or cells: E. coli for GST-STAT6-TAD
Experimental: 4 μg GST or GST-STAT6-TAD fusion protein purified from E. coli, are bound to 20 μl glutathione-Sepharose and are incubated with 1.5 μl [^35S]-labeled NCoA-1 in the presence of 100 μg peptide 1, or peptide 2, or peptide 3 respectively, as indicated. Material bound to the glutathione-Sepharose is recovered from the binding reaction, extensively washed and analyzed by SDS-PAGE and fluorography (lanes 2-6). Input control in lane 1 reflects 10% of the total amount of ^35S-labeled NCoA-1 used in the experiments.

GST-STAT6 (aa 677-847) = target: T2, GST-STAT6 (aa 677-847) (Homo sapiens, UniProt P42226); experiment: STAT6/NCoA-1-ELISA (His-NCoA-1 bound to coated GST-STAT6); format: binding; settings: 500 ng GST-STAT6 (677-847) coated, 250 ng His-NCoA-1 (212-463) added; α-Penta-His and α-mouse-HRP; average of three experiments
T2 construct: made in house; host or cells: E. coli
Experimental: The following is an illustration of how an interaction of STAT6 with NCoA-1 can be performed in order to identify a substance which can modulate said interaction.
Substrate solution: dissolve a phosphate citrate buffer tablet (Sigma) in 100 ml water to obtain 0.05 M phosphate citrate buffer pH 5.5. Dissolve a tablet of o-Phenylendiamine dihydrochloride (Sigma) in 30 ml of phosphate citrate buffer in the dark. Prior to use add 30 μl of 30% H2O2. Recombinant Proteins: GST-STAT6 aa 677-847 and His-tagged NCoA-1 aa 212-463 are expressed in E. coli, purified by affinity-chromatografie and dialyzed against 1×PBS according to the art. Sequences of Recombinant Proteins: GST-STAT6 aa 677-847 protein, SEQ ID NO:1 His-tagged NCoA-1 aa 212-463, SEQ ID NO: 3 Antibodies: 1. Antibody: Penta-His, Quiagen (Cat. No. 34660) 2. […] Determine the optical density of each well within 15 minutes, using an ELISA reader set to […]. […]
500 ng of E. coli expressed and affinity purified GST-STAT6 TAD (amino acid, aa 677-847) is coated to 96 well ELISA-plates as indicated. After incubation with 250 ng of E. coli expressed, affinity purified His-NCoA-1 (aa 212-463), bound protein is detected by mouse anti-His-antibody and peroxidase coupled sheep anti-mouse-antibody as indicated. […] Conversion of peroxidase substrate O-phenylenediamine is measured at 492 nm. […]

T1 sequence (P70365 whole entry): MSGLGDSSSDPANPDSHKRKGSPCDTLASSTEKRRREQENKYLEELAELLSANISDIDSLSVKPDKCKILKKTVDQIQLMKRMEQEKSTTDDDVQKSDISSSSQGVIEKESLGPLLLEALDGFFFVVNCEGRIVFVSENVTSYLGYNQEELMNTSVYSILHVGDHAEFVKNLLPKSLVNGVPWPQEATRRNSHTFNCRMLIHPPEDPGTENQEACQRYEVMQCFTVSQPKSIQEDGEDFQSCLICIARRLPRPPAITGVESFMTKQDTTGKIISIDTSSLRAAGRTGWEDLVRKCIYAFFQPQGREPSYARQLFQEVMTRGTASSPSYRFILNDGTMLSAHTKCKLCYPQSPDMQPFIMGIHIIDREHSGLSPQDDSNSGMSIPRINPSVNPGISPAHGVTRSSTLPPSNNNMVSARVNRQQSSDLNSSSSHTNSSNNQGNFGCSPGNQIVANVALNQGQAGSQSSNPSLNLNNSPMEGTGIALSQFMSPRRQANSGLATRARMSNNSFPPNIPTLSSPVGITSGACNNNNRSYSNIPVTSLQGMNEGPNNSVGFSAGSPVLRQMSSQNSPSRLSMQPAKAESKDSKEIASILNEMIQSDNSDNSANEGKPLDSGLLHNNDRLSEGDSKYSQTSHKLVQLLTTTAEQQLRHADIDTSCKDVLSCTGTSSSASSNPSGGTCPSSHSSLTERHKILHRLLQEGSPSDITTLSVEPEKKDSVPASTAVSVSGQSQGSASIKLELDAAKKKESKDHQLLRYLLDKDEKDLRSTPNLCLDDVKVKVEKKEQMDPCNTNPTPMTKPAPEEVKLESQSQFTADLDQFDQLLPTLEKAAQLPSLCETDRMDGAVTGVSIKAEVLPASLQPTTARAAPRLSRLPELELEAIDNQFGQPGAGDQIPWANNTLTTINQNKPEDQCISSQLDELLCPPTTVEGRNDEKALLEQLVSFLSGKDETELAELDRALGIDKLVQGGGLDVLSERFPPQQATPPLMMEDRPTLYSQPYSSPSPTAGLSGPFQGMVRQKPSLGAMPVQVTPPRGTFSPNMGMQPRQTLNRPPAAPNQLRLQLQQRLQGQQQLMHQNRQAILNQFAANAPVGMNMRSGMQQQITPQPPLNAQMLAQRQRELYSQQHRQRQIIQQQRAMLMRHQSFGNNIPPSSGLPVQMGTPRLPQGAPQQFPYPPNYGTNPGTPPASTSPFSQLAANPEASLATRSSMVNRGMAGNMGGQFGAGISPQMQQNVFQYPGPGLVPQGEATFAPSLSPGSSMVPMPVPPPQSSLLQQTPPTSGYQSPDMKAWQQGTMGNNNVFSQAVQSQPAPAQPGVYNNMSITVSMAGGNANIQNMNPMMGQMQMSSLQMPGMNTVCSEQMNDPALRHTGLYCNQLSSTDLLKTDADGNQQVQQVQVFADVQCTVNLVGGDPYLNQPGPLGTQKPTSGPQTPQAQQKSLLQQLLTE
T2 sequence (P42226 with tags, fused parts or gaps): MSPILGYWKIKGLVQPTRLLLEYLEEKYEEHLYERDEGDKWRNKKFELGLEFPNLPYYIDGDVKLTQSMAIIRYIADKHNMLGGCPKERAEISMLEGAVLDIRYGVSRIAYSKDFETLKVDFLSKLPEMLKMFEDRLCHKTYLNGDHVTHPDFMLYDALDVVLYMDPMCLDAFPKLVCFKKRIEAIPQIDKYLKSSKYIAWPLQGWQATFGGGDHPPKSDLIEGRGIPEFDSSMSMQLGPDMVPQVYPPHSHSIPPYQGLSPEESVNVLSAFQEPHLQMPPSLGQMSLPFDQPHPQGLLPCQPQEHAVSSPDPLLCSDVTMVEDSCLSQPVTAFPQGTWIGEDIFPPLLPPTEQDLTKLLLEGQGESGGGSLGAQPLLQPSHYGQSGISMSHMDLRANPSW

| Extinction 493 nm (GST-STAT6 (aa 677-847)) | Molecule | binding of GST-STAT6-TAD with NCoA-1 in presence of peptide [1] |
| --- | --- | --- |
| – | peptide 2: peptide derived from the STAT6 trans-activation domain, amino acid 817 to 830 (SLGAQPLLQPSHYG; UniProt P42226 817-830, looked up, fragment) | does not alter the binding capacity of GST-STAT6-TAD with NCoA-1 significantly |
| – | peptide 3: peptide derived from the STAT6 trans-activation domain, amino acid 830 to 847 (GQSGISMSHMDLRANPSW; UniProt P42226 830-847, looked up, fragment) | does not alter the binding capacity of GST-STAT6-TAD with NCoA-1 significantly |
| – | peptide 1: peptide derived from the STAT6 trans-activation domain, amino acid 794 to 814, SEQ ID NO: 6, contains LXXLL motif (LLPPTEQDLTKLLLEGQGESG; Part of SEQ ID 5; listed as Homo sapiens) | less binding |
| 0.795 | His-NCoA-1: His-tagged NCoA-1 fragment aa 212-463, expressed in E. coli, affinity purified, SEQ ID NO: 3 (protein, His tag) MHHHHHHSSGLVPRGSGMKETAAAKFERQHMDSPDLGTDDDDKAMGYLWIQEACQRYEVMQCFTVSQPKSIQEDGEDFQSCLICIARRLPRPPAITGVESFMTKQDTTGKIISIDTSSLRAAGRTGWEDLVRKCIYAFFQPQGREPSYARQLFQEVMTRGTASSPSYRFILNDGTMLSAHTKCKLCYPQSPDMQPFIMGIHIIDREHSGLSPQDDSNSGMSIPRINPSVNPGISPAHGVTRSSTLPPSNNNMVSARVNRQQSSDLNSSSSHTNSSNNQGNFGCSPGNQIVANVALNQGQAGSLEHHHHHH | – |
